Measurements published in the supplement of paper PMC12636428.

System: Saccharomyces cerevisiae
Experiment: transcriptional activation domain activity (GFP:mCherry ratio, weighted mean of sorted bins, harmonized to initial dataset scale) (arbitrary fluorescence ratio units); higher = stronger transcriptional activation
Details: beta-estradiol 1 µM; induction time 4 h
In short: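 Protein tiles carrying barcodes and fused to an estradiol-inducible synthetic transcription factor were placed at the URA3 locus of yeast diploids with a GFP reporter. Following 4 hours at 30 °C in SC with 1 uM beta-estradiol, cells were sorted into 8 GFP:mCherry bins, barcodes were sequenced, and tiles with fewer than 50 reads were discarded. Activation activity is given as the read-weighted mean of bin median fluorescence, averaged across barcodes and linearly mapped to the initial dataset scale.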

**Q.** Which “transcriptional activation domain activity” value does the source give for “STPSAFGAQPTQTTGAFGQPAQTSAFGAQPATGGFGNTGSAFGQARPSAFGST” here?
**A.** 16900

**Q.** How did the “transcriptional activation domain activity” value turn out when “AKSAKGGSRRKSAATSTRTSAPRRSTGNDTGRSFKPAKDARGSSSGDAEDKIK” was run?
**A.** 37200

**Q.** Which “transcriptional activation domain activity” value does the source give for “LRQRILYIYKWFLRKIYPSINAAYYLSILSFSLMYLFDNTKYSNPFLWLIHTR” here?
**A.** 63900

**Q.** How did the “transcriptional activation domain activity” value turn out when “LAHCGCSQSLLLLLFSFPYRYYIILFHYWVLRGGLTIPIYRVLCGFFLPSFVL” was run?
**A.** 62200

**Q.** For “MKKLEKLLLSNDLTSQKKAFLVLCRMHYLTSSLLSSCVVVLVVGWSSIQKNTT”, which “transcriptional activation domain activity” value is on record?
**A.** 63400

**Q.** For “MRAAPKYITFFLCYGSWFTSMTRGLSCPCWVYFIGHVSIVVVVVFFTFVYIHG”, which “transcriptional activation domain activity” value is on record?
**A.** 38800

**Q.** With “ETVQKYDGYRPDILSIWNNEFYPIGKYNDDMTGFKFQMRIKEMQEFLDMEKYS” as the sequence, how does the “transcriptional activation domain activity” value read?
**A.** 68500

**Q.** With “ALRDSKSSDPKVKKEGEDFLAQLRIGKSYLHGLDAEGRPMCIVRARLHRAGEQ” as the sequence, how does the “transcriptional activation domain activity” value read?
**A.** 48900

**Q.** “LSSSPSAQIATNTNVVFILGSDDKRVKEVGDALKTKLGVKGGGKGSKWSGKFG” was tested. Which “transcriptional activation domain activity” value did it give?
**A.** 33200

**Q.** With “GGGTAARSAGSSSREEERGQRRHGRGERGREGADAGRKGGREGTREALAGKGR” as the sequence, how does the “transcriptional activation domain activity” value read?
**A.** 30800

**Q.** Which “transcriptional activation domain activity” value does the source give for “TSCFSFLVFSFIFLSLGIMMWSLGQELLWYFVFFCLVWIFLLVVCLFIIEYSE” here?
**A.** 32500

**Q.** Which “transcriptional activation domain activity” value does the source give for “TLLYLYTFSFLFPPLLFILILLHLHHLSSSHLFFIHSIILSHNKLWPLLFLLS” here?
**A.** 53400

**Q.** With “MPQSLTCRSASIIATQDCFDVIIFRLRFLLDIARGTLLLFRDHGRALTPFGRP” as the sequence, how does the “transcriptional activation domain activity” value read?
**A.** 51100

**Q.** With “MNQHYGFLNCDLFFYFFFSSLFLIWPFLLFSFSFTVFPYLFTIMETYFGHIKT” as the sequence, how does the “transcriptional activation domain activity” value read?
**A.** 28700

**Q.** Which “transcriptional activation domain activity” value does the source give for “RKLLIALDMRLQNIRSNWKEHHSLTVVIQLTLRLLSLGLSSEVVAGCLDLLKS” here?
**A.** 64700

**Q.** “RLEASKKRKARVEVDIVLERDCVVEGGEVRGRMEVRVHGSKRSEGLRVGAGKI” was tested. Which “transcriptional activation domain activity” value did it give?
**A.** 44400

**Q.** For “RVPPNSSQKTGEPSSSSTKPVASSAVRNRVPPNSSQKTGEPSSSSTKPVASSA”, which “transcriptional activation domain activity” value is on record?
**A.** 52900

**Q.** With “MSSPTSSLFFVSPPVGCYRYLLFFFFSSFWLLFVFLRSVPFGPTLLLFFFYFN” as the sequence, how does the “transcriptional activation domain activity” value read?
**A.** 42400

**Q.** For “PFGICGSFLGLFFCVMGLIAHMPSIWLVRGGNHSYTSLPGNSWLCVIFCLFSC”, which “transcriptional activation domain activity” value is on record?
**A.** 49200

**Q.** For “KTKEGAAKNTKKSGERGKEKGLAGAKSKKSPINNSVKGKKSPSTKKTVKKAGK”, which “transcriptional activation domain activity” value is on record?
**A.** 31600

**Q.** How did the “transcriptional activation domain activity” value turn out when “YADWLLEPEQNNGTWVADVLWPAINLDLQWISSHWNQSSWDLWWPPVWGGSYW” was run?
**A.** 67800

**Q.** How did the “transcriptional activation domain activity” value turn out when “MTVDTLSYTLFPFYSLLSHFLLLLAEIVLCLKYCLLLTLFSILLFLLVFLFLA” was run?
**A.** 32800

**Q.** How did the “transcriptional activation domain activity” value turn out when “PSDSRSRSRSRSASRKRGGAGRGGRSDSSDSEGDNSRRRQVSPARRRQRPARG” was run?
**A.** 38300

**Q.** How did the “transcriptional activation domain activity” value turn out when “FPSLRLPFCVCLWFRLFVFFFHIGSFVLLVRLFFFFFNFGLFFLFFFLFSFFS” was run?
**A.** 27500

**Q.** For “LHFCHRLLSRISSLLFCFLFYCLDVLFLSLFLLCFFFPFFFFLFFLFLFQHFA”, which “transcriptional activation domain activity” value is on record?
**A.** 54800

**Q.** With “NLLLFPGISFKTQLLYAIVFCTRYLDLFIRFVSIYNTLMKIFFIGSSFYILYL” as the sequence, how does the “transcriptional activation domain activity” value read?
**A.** 67300

**Q.** For “DRMYNQISQVFDHLYARQDRTWGRVAEDFRSVLLIRWYFDAASLWVTLWCRYT”, which “transcriptional activation domain activity” value is on record?
**A.** 48600

**Q.** With “KNDDRGDRGERRSRSRRRRHSVTGVDRESRAESKHRDPKHRKHRIAEAGAASA” as the sequence, how does the “transcriptional activation domain activity” value read?
**A.** 41500

**Q.** With “MLLTFFFPLYCTSSFRVTQFLYPFQTLLFTFVFQAYLLLFLLFLLLLLLCFSP” as the sequence, how does the “transcriptional activation domain activity” value read?
**A.** 41000

**Q.** Which “transcriptional activation domain activity” value does the source give for “MNFTDIYFSDIIYVLLLYLLILFTFFLDLLISFTFVTLYSILFLFVLYSFILN” here?
**A.** 70500

**Q.** How did the “transcriptional activation domain activity” value turn out when “HERLKLCNYQQAPDNIWCQYWFMGSFLVFFSNLDAVIDLPVMILLDLMPQICF” was run?
**A.** 44100

**Q.** Which “transcriptional activation domain activity” value does the source give for “AVSAGLMSGFGSSSDEDEDEEQENEEDVNNEVSYPLHKLSHRFFFGHNAPSGA” here?
**A.** 15700

**Q.** With “EDGESTKTKDAGRKRKRSTGEGEREDKGADGTKENKKKRKLASEKEKESDKEN” as the sequence, how does the “transcriptional activation domain activity” value read?
**A.** 27400

**Q.** Which “transcriptional activation domain activity” value does the source give for “PSHEYNKTLSALLILLESSAERCFKDLTLLRAAGVTLLGRLFLVFPVFFNPRH” here?
**A.** 57600

**Q.** Which “transcriptional activation domain activity” value does the source give for “EKEAVVKDTASSTRAKTTRSKPKAAPAAAEPPKTATRGRGAAKLAADKPAPKT” here?
**A.** 23400

**Q.** For “LIRIKDFTPNEVAAVVTYYSCRTNGMIPLTGRKWLGRIICRCLPLFDMLLFYR”, which “transcriptional activation domain activity” value is on record?
**A.** 37500

**Q.** How did the “transcriptional activation domain activity” value turn out when “KFQERMMVLKEIKLISLGDVRKITYSRMGYTDWKIVVLGRMWNLRFFVATGWD” was run?
**A.** 64400

**Q.** For “LRLDGSYLYFADVREANVEQLRLNFTADDVIFKCLAWSIRHFMILRDNYFGSF”, which “transcriptional activation domain activity” value is on record?
**A.** 46300

**Q.** “LRLVYCQVKKKKYKSINRYVAIHELSYNVMIWRFLAIYHSSQRLKWSIFLLSF” was tested. Which “transcriptional activation domain activity” value did it give?
**A.** 42100

**Q.** For “GEGSAEDGGGSSEPRRLRRSHEACSRCRGKKIKCDSKHPRCTACATANTQCTQ”, which “transcriptional activation domain activity” value is on record?
**A.** 25100

**Q.** With “EWVIGWCKQIGLPDGVTEFIGRSYIMTAEAYLDLPMSKQVLVPVVAINTLVFV” as the sequence, how does the “transcriptional activation domain activity” value read?
**A.** 34200
